# Experimental data from US20260234246A1 (CAEDO ONCOLOGY, published 2026).
# Experiments:
# [1] = target: T1, human CD47 on the surface of cells (human cancer cell lines and human red blood cells) (human, UniProt Q08722 19-323); assay: flow cytometry on Jurkat cells, goat anti-human FITC, MFI against log µg/ml
# T1 construct: Native CD47 of human cell lines (Jurkat, Reh, CCRF-CEM and others) and of RBCs from healthy donors; also called cell-surface CD47
# Method: PBS-washed cancer cell lines or RBCs were pelleted and washed with washing buffer (3% (w/v) BSA, 1% (w/v) sodium azide in DPBS) and incubated with Human BD Fc Block for 10 minutes before being plated into a round-bottom 96 well plate (2.5×10⁵ cells per well). […] All samples were prepared in duplicates. The cells were washed twice in washing buffer, followed by 30 minutes incubation with Goat anti-human FITC staining buffer (Goat anti-human FITC diluted 1:200 in washing buffer) on ice, protected from light with slight agitation. The cells were analyzed by flow cytometry after three washes in washing buffer. Excitation wavelength FITC: 488 nm, detection: 530/30 nm.
# [2] = target: T2, recombinant CD47 (recCD47), SinoBiological 12283-H27H-B, biotinylated (human, UniProt Q08722 19-139, biotinylated (AVI-tag)); assay: SPR Biacore S200, single-cycle, recCD47 on SA chip 100 RU, antibody as analyte, 25 C, 1:1 model;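 also: antibodies were injected over the captured CD47 at a series of concentrations, and KD was derived as the dissociation rate constant divided by the association rate constant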
# T2 construct: Bought protein, 17 kDa; At 17 kDa it can only be a part of it; also called recombinant biotinylated CD47; not shown: C-terminal His- and AVI-tag
# [3] = target: T1, human CD47 on the surface of cells …; assay: flow cytometry, FITC-conjugated antibody on CCRF-CEM cells
# Method: (§1) PBS-washed cancer cell lines or RBCs were pelleted and washed with washing buffer (3% (w/v) BSA, 1% (w/v) sodium azide in PBS) and incubated with Human BD Fc Block for 10 minutes before being plated into a round-bottom 96 well plate (2.5×10⁵ cells per well). Antibodies were conjugated with FITC using the FITC conjugation kit from Abcam. […] All samples were prepared in duplicates. Cells were washed three times and resuspended in cold washing buffer. Cells were kept on ice until analyses by flow cytometry. Excitation wavelength FITC: 488 nm, detection: 530/30 nm.
# (§2) 4-parameter curve fitting was performed using GraphPad Prism
# [4] = target: T2, recombinant CD47 (recCD47), …; assay: SPR Biacore S200, multi-cycle (top 50 nM), recCD47 on SA chip 1330 RU, 1:1 model
# [5] = target: T2, recombinant CD47 (recCD47), …; assay: SPR Biacore S200, single-cycle (top 80 nM), recCD47 on SA chip 1330 RU, 1:1 model
# [6] = target: T2, recombinant CD47 (recCD47), …; assay: SPR Biacore S200, single-cycle, recCD47 on SA chip 700 RU, antibody as analyte, 25 C, 1:1 model
# [7] = target: T2, recombinant CD47 (recCD47), …; assay: SPR Biacore S200, multi-cycle (top 50 nM), recCD47 on SA chip 1330 RU, antibody as analyte, 1:1 model
# [8] = target: T2, recombinant CD47 (recCD47), …; assay: SPR Biacore S200, single-cycle (top 80 nM), recCD47 on SA chip 1330 RU, antibody as analyte, 1:1 model
# [9] = target: T2, recombinant CD47 (recCD47), …; assay: SPR Biacore S200, multi-cycle (top 50 nM), recCD47 on SA chip 1330 RU, 1:1 model; * off-rate difficult to determine
# [10] = target: T2, recombinant CD47 (recCD47), …; assay: SPR Biacore S200, single-cycle (top 80 nM), recCD47 on SA chip 1330 RU, 1:1 model; * off-rate difficult to determine
# [11] = target: T2, recombinant CD47 (recCD47), …; assay: SPR Biacore S200, single-cycle, recCD47 on SA chip 100 RU, fragment as analyte, 25 C, 1:1 model
# [12] = target: T1, human CD47 on the surface of cells …; assay: flow cytometry, FITC-conjugated antibody on Reh cells
# Method: as §1, §2
# [13] = target: T1, human CD47 on the surface of cells …; assay: flow cytometry, FITC-conjugated antibody on human RBCs
# Method: as §1, §2
# [14] = target: T1, human CD47 on the surface of cells …; assay: flow cytometry, FITC-conjugated antibody on Jurkat cells
# Method: as §1, §2
# [15] = target: T2, recombinant CD47 (recCD47), …; assay: SPR Biacore S200, single-cycle (top 1 uM), recCD47 on SA chip 1330 RU, antibody as analyte, 1:1 model
# [16] = target: T2, recombinant CD47 (recCD47), …; assay: SPR Biacore S200, multi-cycle (top 50 nM), run 1, recCD47 on SA chip 1330 RU, antibody as analyte, 1:1 model
# [17] = target: T2, recombinant CD47 (recCD47), …; assay: SPR Biacore S200, multi-cycle (top 50 nM), run 2, recCD47 on SA chip 1330 RU, antibody as analyte, 1:1 model
# T1 sequence (Q08722 19-323 limits assumed): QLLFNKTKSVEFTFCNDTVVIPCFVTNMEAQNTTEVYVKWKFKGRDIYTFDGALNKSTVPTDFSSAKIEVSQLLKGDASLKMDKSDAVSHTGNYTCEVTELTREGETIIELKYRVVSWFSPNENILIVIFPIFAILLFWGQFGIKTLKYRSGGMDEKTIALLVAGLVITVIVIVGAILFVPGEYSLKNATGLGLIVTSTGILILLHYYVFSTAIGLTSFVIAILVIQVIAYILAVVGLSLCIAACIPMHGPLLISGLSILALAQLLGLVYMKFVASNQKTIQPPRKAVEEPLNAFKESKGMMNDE
# T2 sequence (Q08722 19-139 limits assumed): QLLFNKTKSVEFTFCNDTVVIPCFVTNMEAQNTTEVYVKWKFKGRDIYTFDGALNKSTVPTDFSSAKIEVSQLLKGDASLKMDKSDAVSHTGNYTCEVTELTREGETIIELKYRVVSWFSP
binder,measurement,setting,value
"CO201 humanized IgG4 anti-CD47 antibody (antibody, V domains shown, also called huCO-mAb) VH: QVQLVQSGSELKKPGASVKVSCKASGYTFTNFGMHWVRQAPGQGLEWMGWINTYTGEPTYTDDFKGRFVFSLDTSVSTAYLQISSLKAEDTAVYYCARGDYRYGDSWGQGTTVTVSS VL: DIVMTQTPLSLSVTPGQPASISCRSSQSLVHSNGKTYLHWYLQKPGQPPQLLIYRVSNRFSGVPDRFSGSGSGTDFTLKISRVEAEDVGVYYCSQSTHVPFTFGQGTKLEIK",EC50 (read off the curve),[1],~70 ng/mL
same,Kd,[2],49.9 pM
same,koff,[2],0.00043 s⁻¹
same,kon,[2],8.7e+06 M⁻¹ s⁻¹
"CO205 humanized IgG4 anti-CD47 antibody (antibody, V domains shown, also called huCO-mAb) VH: QVQLVQSGSELKKPGASVKVSCKASGYTFTNFGMHWVRQAPGQGLEWMGWINTYTGEPTYTDDFKGRFVFSLDTSVSTAYLQISSLKAEDTAVYYCARGDYRYGDSWGQGTTVTVSS VL: DIVMTQTPLSLSVTPGQPASISCRSSQSLVHSNGKTYLHWYLQKPGQSPQLLIYRVSNRFSGVPDRFSGSGSGTDFTLKISRVEAEDVGVYYCSQSTHVPFTFGQGTKLEIK",EC50 (read off the curve),[1],~80 ng/mL
same,Kd,[2],56 pM
same,koff,[2],0.00046 s⁻¹
same,kon,[2],8.2e+06 M⁻¹ s⁻¹
"CO-1.1 antibody (chimeric CO-1 IgG1) (antibody, Chimeric: mouse variable domains of mCO-1 with human IgG1 constant regions; also called SC-CO-1; MC-CO-1) heavy: not shown light: DVVMTQTPLSLPVSLGDQASISCRSSQSLVHSNGKTYLHWYLQKPGQSPKLLIYRVSNRFSGVPDRFSGSGSGTDFTLKISRIEAEDLGVYFCSQSTHVPFTFGSGTKLEIKRTVAAPSVFIFPPSDEQLKSGTASVVCLLNNFYPREAKVQWKVDNALQSGNSQESVTEQDSKDSTYSLSSTLTLSKADYEKHKVYACEVTHQGLSSPVTKSFNRGEC",EC50,[3],0.0283 ng/mL
same,Kd,[4],< 1 pM
same,Kd,[5],< 1 pM
same,koff,[6],4.7e-06 s⁻¹
same,kon,[6],1.4e+06 M⁻¹ s⁻¹
same,kon,[7],900000 M⁻¹ s⁻¹
same,kon,[8],500000 M⁻¹ s⁻¹
same,Kd,[9],0.04 pM
same,Kd,[10],< 1 pM
"CO-1 F(ab')2 antibody (other, F(ab')2 fragment, divalent for CD47, based on mCO-1; also called CO F(ab')2; CO-F(ab')2) heavy: QIQLVQSGPELKKPGETVKISCKASGYTFTNFGMHWVKQAPGKGLKWMGWINTYTGEPTYTDDFKGRFAFSLETSASTAYLQINSLKNEDTATFFCTRGDYRYGDSWGQGTTLTVSSASTKGPSVFPLAPSSKSTSGGTAALGCLVKDYFPEPVTVSWNSGALTSGVHTFPAVLQSSGLYSLSSVVTVPSSSLGTQTYICNVNHKPSNTKVDKKVEPKSCDKTHTCPPCPAPELLG light: DVVMTQTPLSLPVSLGDQASISCRSSQSLVHSNGKTYLHWYLQKPGQSPKLLIYRVSNRFSGVPDRFSGSGSGTDFTLKISRIEAEDLGVYFCSQSTHVPFTFGSGTKLEIKRTVAAPSVFIFPPSDEQLKSGTASVVCLLNNFYPREAKVQWKVDNALQSGNSQESVTEQDSKDSTYSLSSTLTLSKADYEKHKVYACEVTHQGLSSPVTKSFNRGEC",koff,[11],4.5e-05 s⁻¹
same,kon,[11],6.9e+06 M⁻¹ s⁻¹
"AO-A IgG1 (AO-176 candidate A) (antibody, V domains shown, Comparator from WO2020/198370; also called AO-A.1; AO-176 A) VH: QVQLVQSGAEVKKPGASVKVSCKASGYTFTNYWIHWVRQAPGQGLEWMGYTDPRTDYTEYNQKFKDRVTMTRDTSTSTVYMELSSLRSEDTAVYYCARGGRVGLGYWGQGTLVTVSS VL: DIVMTQSPDSLAVSLGERATINCRSSQNIVQSNGNTYLEWYQQKPGQPPKLLIYKVFHRFSGVPDRFSGSGSGTDFTLTISSLQAEDVAVYYCFQGSHVPYTFGQGTKLEIKR",EC50,[12],340 ng/mL
same,EC50,[13],2420 ng/mL
same,EC50,[14],30.3 ng/mL
same,EC50,[3],0.285 ng/mL
same,Kd,[15],1000 pM
same,koff,[15],0.0006 s⁻¹
same,kon,[15],500000 M⁻¹ s⁻¹
same,Kd,[8],1000 pM
same,koff,[8],0.0008 s⁻¹
same,kon,[8],800000 M⁻¹ s⁻¹
same,Kd,[16],1000 pM
same,koff,[16],0.001 s⁻¹
same,kon,[16],1.5e+06 M⁻¹ s⁻¹
same,Kd,[17],1000 pM
same,koff,[17],0.002 s⁻¹
same,kon,[17],1.8e+06 M⁻¹ s⁻¹
